In the DeepSol protein solubility set:

Assay: soluble on expression in E. coli; label from the status in PepcDB or PDB records
With “MSEKPIDKVFNRILVGVDDSADAQLAFRYAVRRAVKDNATLIITSILENDEMNVYQALTKDYVHGERYELVEHLKKYRDIAAKAGVKDIKEIVDEGNAGETIVKNVIPAVKADLLIIGSLSKKGISKYFGSQAAYMAKYAPISVLIIR” the “soluble on expression in E. coli” value was “not soluble”. In the case of “MSEKRLPLKPVLRIDFPPGERLGHGKVELMQLIAETGSISAAGRAMDMSYRRAWLLVDALNHMFRQPVICSQRGGKQGGGAALTVFGAELLERYRGMEERMNEALREDIDWLEANRNPQDALNRDREPPTL”, the “soluble on expression in E. coli” value is reported as “soluble”. With “MSEKRLTMKETIRRKALSLGFCAVGFAAADTLNEAMKEYRAMIDEGRHGEMGYLETGLEARANPELLLPGVKSVLSAALPWPAPAKPGAISGYAVIPDYHRVVGELLKELLDFIRSICDHPINGQICVDSSPVLEKEWAEAAGIGRTGKNTLLIVPGYGSRVFLGELLLDLELEPDTPLDWNPCGDCTACLDACPTGALNTPGKLDARRCISYLTIELKRDFTDEEAAMTNGWFYGCDHCLDACPHNANIEATGYPGFEQKKELVNLTPEKALELTHSQFRKRFAGTPALRLGLRRLKRNARAAVANKSQSKS” the “soluble on expression in E. coli” value was “not soluble”. For “MSELLTTYRPIKILLQLDPNLGNNSYNGRVKIDYEFTGETSEIKIQTSRDFQWTSVRLATFYDFNEGCPVYASVDCENYVHDAESEILTLPLGNPLTPETTENGFYIELEWTGPINPQGETTGLYAIDESTIEANMKDGNAHKVFPCYEGGVSAKFWLTVITDERTRVETNMDDAGHEEFEGRVKNNFLKEEELTIEDVYIYVTPIIDME”, the “soluble on expression in E. coli” value was “not soluble”. In the case of “MSELRILRAVDYPRMPWKNGAGSTEEIARDGGDGLDGFGWRLSIADVGESGGFSGFAGYQRIISVLEGGGMRLRVDGAESAPLRARQAFAFSGDSEVHCTLLDGAIRDFNLIYAPRRHRARLQWLRVEGELDWHGTASTLLLFAQQDGVAISLQGQPRGQLAAHDCLCAEGLQGLQHWRLTAHEPAWVCAVELDSL”, the “soluble on expression in E. coli” value is reported as “soluble”. With “MSEQIRLENLTIFMQRRAVKHVYLRVHPPDGRVTLVAPTGMRLEVVRAFVTAKLDWIHKQQAKLQAQVREVPRQFIGGESHTVWGRHYVLQVVEKSAGPCVLMDQQTITLQVRPGSDLFKRAAVMHAWHKSLLHAVVPDLIGKWQDRLGVSVSAYFLQQMKTRWGSCNTRRRHIRLNTDLVRKPQDLLEYVVVHELVHLIEPSHNKRFVGLMDQHYPAWREATAELNQIPLSAIRPRGLEHHHHHH” the “soluble on expression in E. coli” value was “not soluble”. For “MSEQITFATSDFASNPEPRCPCILLLDVSGSMNGRPINELNAGLVTFRDELLADPLALKRVELGIVTFGPVHVEQPFTSAANFFPPILFAQGDTPMGAAITKALDMVEERKREYRANGISYYRPWIFLITDGAPTDEWQAAANKVFRGEEDKRFAFFSIGVQGADMKTLAQISVRQPLPLQGLQFRELFSWLSSSLRSVSRSTPGTEVVLEAPKGWTSV”, the “soluble on expression in E. coli” value was “soluble”. In the case of “MSEQNTAKTLPDRNEIEESSTWRLEDIFQTDTEWEKEFQAIKELLPKLTEFKGKLGDSANNLLEALQYEDEISMRLGKLYTYAHMRYDQDTTNSVYQALNDRATNLYSQVSSSTAYIVPEILSISEDTLQTFLKENRDLSVYEHALEEITRQRPHVLSEAEEALLAEASEVMSTSSNTFGMLNNADLKFPSIKGEDGEEVEITHGRYIQFLESDDRRVREDAFKAVYETYGKYKNTFASTLSGAVKRNNFNARVRKYDSARQAALSNNNIPEAVYDQLIESVNDNLHLLHRYIDIRKRALGLDELHMYDLYTPLVPEVKMNVKYEEAQDMLLKSLHVLGDEYVDILKEAYENRWVDVYENKGKRSGAYSSGAYGTNPYILMNWHDNVNNLFTLAHEFGHSVHSYYTRKTQPHVYGDYSIFVAEVASTCNEALLNDYLLKTTEDKKERLYLLNHYLEGFRGTVFRQTMFAEFEHIIHKKVQEGHAVTPDMLTEIYYDLNKKYFGDALVIDEEIGLEWSRIPHFYYNYYVYQYATGFSAATALSKQILEEGQPAVERYINEFLKAGSSDYPIEVLKKAGVDMASPEPVKEALQVFEEKLNELEALLFEEK”, the “soluble on expression in E. coli” value is reported as “not soluble”. In the case of “MSERAPLVIIGTGLAGYNLAREWRKLDGETPLLMITADDGRSYSKPMLSTGFSKNKDADGLAMAEPGAMAEQLNARILTHTRVTGIDPGHQRIWIGEEEVRYRDLVLAWGAEPIRVPVEGDAQDALYPINDLEDYARFRQAAAGKRRVLLLGAGLIGCEFANDLSSGGYQLDVVAPCEQVMPGLLHPAAAKAVQAGLEGLGVRFHLGPVLASLKKAGEGLEAHLSDGEVIPCDLVVSAVGLRPRTELAFAAGLAVNRGIVVDRSLRTSHANIYALGDCAEVDGLNLLYVMPLMACARALAQTLAGNPSQVAYGPMPVTVKTPACPLVVSPPPRGMDGQWLVEGSGTDLKVLCRDTAGRVIGYALTGAAVNEKLALNKELPGLMA”, the “soluble on expression in E. coli” value is reported as “soluble”. In the case of “MSESGHRKGQAIIVQYSDSSSAYYAYAEGIEDDIIISSRYCPSNEDLLGKWIHLAIDDRSYACDTIQVIDDVFETKVFRGQVEVKINIQFDGRTARGMGMFYNDYFGYICDPNNVLHNTRDGANHNNVWVVRRNAEGLNSRWKVSSEQDDIQHIFPRPENVDKLETVVGVITTHAKLGDFYLVWSPSRPRSTICIAYKFCPSKSNLLGTWAEMRVNRSQRVQRPISVIDALYETRTIFGMTEFRIDFQQTRRFNPDYHLFYHEYFGGILDTLCIIDDVKEGGWYNGWIVYSQHSDASTYWRLAMKQTVLGPYNSPYSCLSPLQQDNNFNEPRNMDPNPPYRTRDRSRSMDRSTRHATRRVDEFTHKRRSPSPEVINVYKEPSRSHANELYDSQKNQYTSHEGHSTSSPTAENRQCHRSRSPEQSNFRPSQTVPGLSSMEQRKAHENVDWGPHRTKNVPPIRSATETPETDHRQDDQSVASTSALYLLDSPGPDPSPKLHLTSEEKELKKLKTKLSRICKLSLSFTANDSVSTPMQLHSLEEYEELIKLTNKFQ”, the “soluble on expression in E. coli” value is reported as “not soluble”. With “MSESLTWHDVIGNEKQQAYFQQTLQFVESQRQAGKVIYPPAKDVFNAFRFTEFGDVKVVILGQDPYHGPNQAHGLCFSVLPGVKTPPSLVNIYKELAQDIPGFQIPPHGYLQSWAQQGVLLLNTVLTVEQGMAHSHANTGWETFTDRVIDALNQHRNGLIFLLWGSHAQKKGQMIDRQRHHVLMAPHPSPLSAHRGFLGCRHFSKTNQLLQAQGIAPINWQPELES” the “soluble on expression in E. coli” value was “soluble”. With “MSETIFGKILTGEIPSFKVYEDDYVYAFLDISQVTKGHTLLIPKKASANIFETDEETMKHIGAALPKVANAIKRAFNPDGLNIIQNNGEFADQSVFHIHFHLIPRYENDIDGFGYKWETHEDILDNDAKQQIAEQIQAQF” the “soluble on expression in E. coli” value was “not soluble”. In the case of “MSFAQQKLSELAVSIPGATKIFREYDLDFCCGGSVLLEVAAQQKNLNLAEIEKRLTDLQQSKAENNDKDWTSASYAEMIDHIITRFHNRHREQLPELITLAEKVENIHGDRDDCPIGVVAQLEKIYAELSQHLMKEEQILFPMIKMGNYAMASMPIRVMEMEHDEAGQDVEVIKSLTNNCTPPADACFSWKALYSGINEFIDDLMHHIHLENNILFPRVLNEK”, the “soluble on expression in E. coli” value is reported as “not soluble”. For “MSFERSRHDLKLKTSDGMHCVMTNKEIVCLASQFFRQHLKDTTTEFTVGRADSVESIDICLTYMITGIYKKPAQFSPKLASEIFALANQWKVLEPKVLKNSIEKHCCEELQKNYEDIMYVCNMLIIAEDAHFTNVQSCCIATLVFYHVRDFIRIIVNGVESPTEECFSQRREFLKPSLTMQAKRAFAASNEAKCFIKFLPAIGED”, the “soluble on expression in E. coli” value was “not soluble”. For “MSFESNQLMPIAALRGGPGTPAADVLTAFALRRKAEGIDVVGVIVPPEDAGSGHQGHGHGEGHGGGHEGCECRSELIDIATGDRYAMHQDLGSGSQACNLNSSSLALAAGAVERAVARKPALVVLSRFGGQEAVRGGLMSAFQAAIAAGVPVACVVTPKAEDVWNDFAQGLSVSLPPEADALEAWWRDHARGRNAALEHHHHHH”, the “soluble on expression in E. coli” value was “not soluble”. For “MSFFDELKTSLEEAVEIKQGLKEPARVTRYEIADVKAIREQLNVSQSEMAKALGTSVDTIKSWESKRRNPTGLAAKVLATIKENPAFFRELASH”, the “soluble on expression in E. coli” value was “not soluble”. For “MSFFDKVKGALTSGREELTRQVGRYKNKKFMQGTVAVCARIAVASDGVSSEEKQKMIGFLRSSEELKVFDTAEVIEFFNKLVTSFDFDLEIGKGETMKYILALKDQPEAAQLALRVGIAVAKSDGNFDDDEKSAVREIARSLGFDPAEFGLLE”, the “soluble on expression in E. coli” value was “soluble”. For “MSFILPSESIDGTHPCNGLHMNGQDSLVQPLLTDFYQITMCYAYWKTGTHNEPAVFDVFFRKNPFQGEFTVFAGLEDCLRFVENFKFSQSDIDYVKKILPENAEPEFYEYLETLNGSHLTIEAVAEGSVVFPKVPLLTINGPLAMCQLIETSILNLVNYASLVATNAARFRQASGWKIQLLEFGLRRAQGPNGGLTASKYCYIGGFDATSNVLAGKLYGIPVKGTQAHSFICSFSSPAELKVRLLNHKITNEKADLFQISMEKRAWLLDQFSWKAALSEVSDGELSAFVAYAIAFPDTFLALIDTYDVIRSGVVNFVAVSLALHDLGYRSMGCRIDSGDLSYLSKELRECFVKVSTLKGEYKFFEKMSIVASNDINEETIMSLNDQQHEINAFGVGTHLVTCQKQPALGCVYKLVAQSAQPKIKLSQDVTKITIPGKKKCYRIFGKNGYAILDLMMLEDEPEPQPNQQILCRHPFEVESKRALVNANKIIKLHNVYWKDGEMITPLPTLNEIKEHVNESIRSTLRQDHRRYLNPTPYKVSVSERLYQFLHTLWLQNAPIGQLE”, the “soluble on expression in E. coli” value was “soluble”. For “MSFLGFTLVGKKIRWTEKSLANFKHRVRQLTGRSWGVSMEYRLEKLGQYLRGWFGYYGISQYYRPIPELDEWIRRRVRMCYWKQWRWARTKIRHLLDLGIPLKAAIQHGVSSLSYWRMARTPLEHHHHHH”, the “soluble on expression in E. coli” value was “soluble”. For “MSFNLSVIGAGLPVAQSTTTLIDALRTHRMAVVQAPPGTGKTTLVPPIAHNVTGGRVIVVAPRRVAVRAAAHHLVQLDQSSCDQPSTHRVGYTIRGERSRGDLVEFVTPGVLLRRLISNPELDGVSAVVVDEVHERQLDTDLVLGMLVELRELRDDLTVIAMSAT”, the “soluble on expression in E. coli” value was “not soluble”. In the case of “MSFRLRIDDSVTADHVVCWGVTVALLKKSLFGSTPEERKRRVEEKISQAVVELGLEGLSDEFRVSMLSAWVRYYVFRVDAGEKTFVLNVLSPNSPVKSFRDILDPLRGLFEKFRENIAVPVAYTDEFMLQEWINGLPLSELRDGDVMRSDEKSRRIIEESIYLTARLLYRLWKEGFVYSPWEDYEAMYCDGKIVLLDVTRFEKKPSNESFLQHYYGAPFCPPDVLKDPKSPVNRLYFRGTSERDYFGVEREKYEELFLKGIRDECGSEQEFKILLGDCEAVERIKRV”, the “soluble on expression in E. coli” value is reported as “not soluble”. In the case of “MSFRTIEWRDDKVVMIDQTRLPGEEVYCEYADYKSVAEAIRGMVIRGAPAIGVAAAMGVALGAREIIADTYESFFRQMENVCDVMARTRPTAVNLFWAIERMKRVADENRDKPLDQLREILKTEAIRIEQEDLELCKAIGRHGAALIPEGATVLTHCNAGGLATAGYGTALGVIRAAHDAGKKIQVFADETRPWLQGARLTAWELMKDGIPVTLISDNMAGFFMKRGEIACCVVGADRIAANGDTANKIGTYSVAVLAKENNIPFYVAAPTTTLDLSLENGDQIPIEERHSREVTHLHGFPVAPEGIRVRNPAFDVTPARYISAIITEQGVVSGDYVTGLRGLVAPLEHHHHHH”, the “soluble on expression in E. coli” value is reported as “not soluble”.
